Reference: publication PMC5399293, “Hierarchical assembly of centriole subdistal appendages via centrosome binding proteins CCDC120 and CCDC68” (Nature Communications, 2017)

Target: T1, MBP-hNinein-N (1–480 aa) (human, UniProt Q8N4C6 1-480)
T1 construct: human Ninein residues 1-480; also called purified 1–480 aa of hNinein
T1 sequence (looked up): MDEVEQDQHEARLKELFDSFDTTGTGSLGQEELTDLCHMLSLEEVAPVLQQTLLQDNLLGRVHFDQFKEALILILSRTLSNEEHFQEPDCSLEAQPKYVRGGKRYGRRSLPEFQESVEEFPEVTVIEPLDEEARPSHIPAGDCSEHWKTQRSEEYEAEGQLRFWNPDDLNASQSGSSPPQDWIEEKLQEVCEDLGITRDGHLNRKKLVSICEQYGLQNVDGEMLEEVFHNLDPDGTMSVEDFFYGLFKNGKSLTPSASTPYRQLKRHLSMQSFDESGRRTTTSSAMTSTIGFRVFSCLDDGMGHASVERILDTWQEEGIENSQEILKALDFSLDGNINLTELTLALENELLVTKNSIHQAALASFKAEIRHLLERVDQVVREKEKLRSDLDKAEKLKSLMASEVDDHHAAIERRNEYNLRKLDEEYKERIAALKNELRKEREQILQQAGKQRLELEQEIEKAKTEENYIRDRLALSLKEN
Experiment: pull-down; in vitro binding: purified GST-CCDC120 (1–320 aa) incubated with amylose resin beads coated with MBP fusions, 4 °C; immunoblot with anti-GST
Conditions: both partners purified

binding result: binds
B1: GST-tagged CCDC120 (1–320 aa) (domain or fragment, human, UniProt Q96HB5-1 1-320, looked up)
chain: MEVKGQLISSPTFNAPAALFGEAAPQVKSERLRGLLDRQRTLQEALSLKLQELRKVCLQEAELTGQLPPECPLEPGERPQLVRRRPPTARAYPPPHPNQAHHSLCPAEELALEALEREVSVQQQIAAAARRLALAPDLSTEQRRRRRQVQADALRRLHELEEQLRDVRARLGLPVLPLPQPLPLSTGSVITTQGVCLGMRLAQLSQEDVVLHSESSSLSESGASHDNEEPHGCFSLAERPSPPKAWDQLRAVSGGSPERRTPWKPPPSDLYGDLKSRRNSVASPTSPTRSLPRSASSFEGRSVPATPVLTRGAGPQLCKP
notes: human CCDC120 (NM_001271836.1) residues 1-320; also called GST-CCDC120 (1–320 aa); 1–320 aa of CCDC120
